Where a chain is given by its changes, count along the chain named.
T1: human gamma (γ) common chain expressed on CHO cells (human, UniProt P31785 23-369)
T1 construct: whole, on cells; Control protein; also called human IL-2R-γ common subunit; human γ-common
T1 sequence (looked up): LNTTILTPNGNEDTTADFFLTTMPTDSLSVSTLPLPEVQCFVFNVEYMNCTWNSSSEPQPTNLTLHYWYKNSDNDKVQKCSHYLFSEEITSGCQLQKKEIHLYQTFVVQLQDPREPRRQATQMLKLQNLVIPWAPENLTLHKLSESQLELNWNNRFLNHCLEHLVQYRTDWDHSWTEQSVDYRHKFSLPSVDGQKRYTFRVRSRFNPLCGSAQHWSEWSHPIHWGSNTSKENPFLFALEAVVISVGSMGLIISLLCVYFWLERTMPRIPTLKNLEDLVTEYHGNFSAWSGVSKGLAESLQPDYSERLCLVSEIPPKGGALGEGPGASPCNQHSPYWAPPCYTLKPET

B1: parental 18A5 antibody (antibody, V domains shown)
VH: QVQLQESGPGLVKTSETLSLTCAVSGYSISSGYYWGWIRQPPGKGLEWIGSISHTGNTYYNPPLKSRVTISVDTSKNQFSLKLSSVTAADTAVYYCARGGGISRPEYWGKGTLVTVSS
VL: SSELTQDPPVSVALGQTVTLTCQGDSLRTYYASWYQQKSGQAPILLLYGKHKRPSGIPDRFSGSTSGDTASLTITGAQAEDEADYYCNSRDSSGNPHVLFGGGTQLTVL
notes: also called 18A5 IgG
B2: AbO (antibody, human IgG1, V domains shown)
VH: B1 VH with T14P, K110Q
VL: SSELTQDPAVSVALGQTVRITCQGDSLRTYYASWYQQKPGQAPVLVIYGKHKRPSGIPDRFSGSSSGNTASLTITGAQAEDEADYYCVTRSAKGNPHVLFGGGTQLTVL
notes: CDR3 graft, residue limits derived as for m29; also called VHP/VL16; VHPTM/VL16
B3: AbQ (antibody, human IgG1, V domains shown)
VH: B1 VH with T14P, G99F, G100M, I102F, S103G, K110Q
VL: B2 VL with T89A, A92V, K93V
notes: CDR3 graft, residue limits derived as for m29; also called VH3/VL2; VH3DM/VL2
B4: AbU (antibody, human IgG1, V domains shown)
VH: B1 VH with T14P, K110Q
VL: B2 VL with V88T, A92N
notes: CDR3 graft, residue limits derived as for m29; also called VHP/VL25; VHPTM/VL25
B5: AbR (antibody, human IgG1, V domains shown)
VH: B1 VH with T14P, G99F, G100M, I102F, S103G, K110Q
VL: B2 VL with A92V
notes: CDR3 graft, residue limits derived as for m29; also called VH3/VL18; VH3DM/VL18
B6: AbT (antibody, human IgG1, V domains shown)
VH: B1 VH with T14P, K110Q
VL: B2 VL with T89A, A92N
notes: CDR3 graft, residue limits derived as for m29; also called VHP/VL9; VHPTM/VL9
B7: AbS (antibody, V domains shown)
VH: B1 VH with T14P, K110Q
VL: B2 VL with V88M, T89S, A92I, K93W
notes: CDR3 graft, residue limits derived as for m29; also called VHP/VL6; VHPTM/VL6
B8: AbP (antibody, human IgG1, V domains shown)
VH: B1 VH with T14P, K110Q
VL: B2 VL with T89S
notes: CDR3 graft, residue limits derived as for m29; also called VHP/VL20; VHPTM/VL20

Biological target: murine IL-21R expressed on cells (murine, UniProt Q9JHX3 20-529)
Experiment: cell-based or functional assay

| Neutralization of murine primary T cell Proliferation IC50 | Binder |
| --- | --- |
| > 85 nM | B1 |
| 4.92 nM | B2 |
| 0.85 nM | B3 |
| 1.79 nM | B4 |
| 0.13 nM | B5 |
| 0.61 nM | B6 |
| 0.02 nM | B7 |

Biological target: T1, human gamma (γ) common chain expressed …
Experiment: cell-based ELISA on CHO cells transiently expressing human gamma common chain; HRP anti-human IgG, A450
Summary of the method: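 Binding read by TMB colour after HRP anti-human IgG (1 hr, RT), stopped with H₂SO₄. Before that, IgG-containing conditioned media, serially diluted in 5% milk/PBS/CaMg, were applied 1 hr at RT to CHO-PA-Dukx cells transfected 48 hr earlier.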

| binding result | Binder |
| --- | --- |
| no binding (tested: 40 nM) | B8 |
| no binding (tested: 13 nM) | B1 |
| no binding (tested: 40 nM) | B2 |
| no binding (tested: 40 nM) | B3 |
| no binding (tested: 40 nM) | B4 |
| no binding (tested: 40 nM) | B5 |
| no binding (tested: 40 nM) | B6 |
| no binding (tested: 40 nM) | B7 |

Biological target: T1, human gamma (γ) common chain expressed …
Experiment: cell ELISA, CHO cells

| A450 (13 nM Ab) | Binder |
| --- | --- |
| 0.112 A450 | B8 |
| 0.108 A450 | B2 |
| 0.125 A450 | B3 |
| 0.104 A450 | B4 |
| 0.109 A450 | B5 |
| 0.102 A450 | B6 |
| 0.118 A450 | B7 |

Biological target: T2, cynomolgus monkey IL-21R expressed on cells (cynomolgus monkey, UniProt G7Q0S8 41-559)
T2 construct: whole, on cells
Experiment: cell ELISA, CHO cells

| A450 (13 nM Ab) | Binder |
| --- | --- |
| 1.31 A450 | B8 |
| 1.36 A450 | B2 |
| 1.31 A450 | B3 |
| 1.31 A450 | B4 |
| 1.35 A450 | B5 |
| 1.22 A450 | B6 |
| 1.22 A450 | B7 |

Biological target: T3, rat IL-21R expressed on cells (rat)
T3 construct: whole, on cells
Experiment: cell ELISA, CHO cells

| A450 (13 nM Ab) | Binder |
| --- | --- |
| 1.03 A450 | B8 |
| 1.1 A450 | B2 |
| 1.16 A450 | B3 |
| 0.927 A450 | B4 |
| 1.11 A450 | B5 |
| 0.994 A450 | B6 |
| 1.17 A450 | B7 |

Biological target: T4, human IL-21R expressed on cells (human, UniProt Q9HBE5 20-538)
T4 construct: also called human IL-21R-BaF3; human IL-21R-TF1
Experiment: cell ELISA, CHO cells

T4 sequence (Q9HBE5 20-538 limits assumed): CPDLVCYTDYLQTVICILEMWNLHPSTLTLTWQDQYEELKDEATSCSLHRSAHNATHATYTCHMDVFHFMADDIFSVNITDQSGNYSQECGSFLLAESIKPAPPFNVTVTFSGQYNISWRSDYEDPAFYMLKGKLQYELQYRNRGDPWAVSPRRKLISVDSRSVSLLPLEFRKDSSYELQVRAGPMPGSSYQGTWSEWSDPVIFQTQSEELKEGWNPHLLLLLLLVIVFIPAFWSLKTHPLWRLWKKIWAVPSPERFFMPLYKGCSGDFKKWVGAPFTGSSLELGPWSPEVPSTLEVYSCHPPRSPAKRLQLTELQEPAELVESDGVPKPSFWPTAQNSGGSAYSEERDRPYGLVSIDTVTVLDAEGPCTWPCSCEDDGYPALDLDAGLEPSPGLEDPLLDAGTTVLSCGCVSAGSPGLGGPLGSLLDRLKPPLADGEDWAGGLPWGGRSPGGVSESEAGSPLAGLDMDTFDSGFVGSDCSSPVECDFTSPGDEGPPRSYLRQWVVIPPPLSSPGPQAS

| A450 (13 nM Ab) | Binder |
| --- | --- |
| 1.31 A450 | B8 |
| 1.11 A450 | B2 |
| 1.25 A450 | B3 |
| 1.29 A450 | B4 |
| 1.33 A450 | B5 |
| 1.08 A450 | B6 |
| 1.02 A450 | B7 |

Biological target: T5, human IL-21R extracellular domain His-Flag fusion protein (human, UniProt Q9HBE5 20-232)
T5 construct: Biotinylated in the HTRF screen; also called hIL-21R-H/F; human IL-21R-H/F
Experiment: SPR, Ab captured on anti-human IgG
Method: (§1) The kinetics of binding of anti-IL-21R antibodies to human and murine IL-21R-H/F was tested on a BIACORE™ surface plasmon resonance instrument. Anti-human IgG antibodies (Invitrogen Corporation) were immobilized onto a research-grade carboxy-methyl-dextran chip (CM5) using standard amine coupling. The surface was activated with EDC/NHS for 7 min at a flow of 20 μl/min. The first flow cell was used as a reference surface to correct for bulk refractive index, matrix effects, and nonspecific binding. The anti-human-Fc antibody was diluted to 20 μg/ml in 10 mM sodium acetate buffer (pH 5.0), and 2950-3405 resonance units (RU) were captured on each of the four flow cells. Remaining activated groups were blocked with 1.0 M ethanolamine-HCl (pH 8.5).
(§2) Anti-IL-21R antibodies were diluted to 0.1-0.2 μg/ml in HBS/EP buffer supplemented with 0.2% bovine serum albumin and loaded onto the BIACORE™ chip. Following a brief washing period, solutions of 0-100 nM human IL-21R-H/F or 10-500 nM murine IL-21R-H/F were injected over the chip at a flow rate of 50 μl/min. The association phase was run for 3 min for human and murine IL-21R kinetics, and the dissociation phase was monitored for 15 min for hIL-21R and for 5 min for mIL-21R, followed by two 10 μl injections and one 30 μl injection of glycine (pH 1.5), to regenerate a fully active capturing surface. All binding experiments were done at 25° C. in HBS/EP buffer, and the sample rack was kept at 15° C. Blank and buffer effects were subtracted for each sensorgram using double referencing.

T5 sequence (Q9HBE5 20-232): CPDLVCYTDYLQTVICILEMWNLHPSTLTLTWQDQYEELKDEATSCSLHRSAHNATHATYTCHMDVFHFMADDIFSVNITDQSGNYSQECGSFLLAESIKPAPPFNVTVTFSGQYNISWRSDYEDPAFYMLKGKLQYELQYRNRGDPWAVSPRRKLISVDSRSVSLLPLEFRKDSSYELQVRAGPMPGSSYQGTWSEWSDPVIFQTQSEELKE

| Kd | koff | kon | Binder |
| --- | --- | --- | --- |
| 0.615 nM | 0.000119 s⁻¹ | 194000 M⁻¹ s⁻¹ | B8 |
| 4.43 nM | 0.00108 s⁻¹ | 243000 M⁻¹ s⁻¹ | B1 |
| 0.475 nM | 0.000114 s⁻¹ | 241000 M⁻¹ s⁻¹ | B2 |
| 0.213 nM | 9.34e-05 s⁻¹ | 439000 M⁻¹ s⁻¹ | B3 |
| 0.44 nM | 8.18e-05 s⁻¹ | 186000 M⁻¹ s⁻¹ | B4 |
| 0.567 nM | 9.61e-05 s⁻¹ | 170000 M⁻¹ s⁻¹ | B5 |
| 0.379 nM | 6.78e-05 s⁻¹ | 179000 M⁻¹ s⁻¹ | B6 |
| 2.02 nM | 0.000291 s⁻¹ | 144000 M⁻¹ s⁻¹ | B7 |

Biological target: T6, murine IL-21R extracellular domain His-Flag fusion protein (murine, UniProt Q9JHX3 20-237)
T6 construct: Biotinylated in the ELISAs; also called mIL-21R-H/F; murine IL-21R-H/F
Experiment: SPR, Ab captured on anti-human IgG
Method: as §1, §2

| Kd | koff | kon | Binder |
| --- | --- | --- | --- |
| 50.8 nM | 0.00508 s⁻¹ | 99900 M⁻¹ s⁻¹ | B8 |
| 72 nM | 0.0153 s⁻¹ | 212000 M⁻¹ s⁻¹ | B1 |
| 49.2 nM | 0.00549 s⁻¹ | 112000 M⁻¹ s⁻¹ | B2 |
| 68.8 nM | 0.0207 s⁻¹ | 301000 M⁻¹ s⁻¹ | B3 |
| 44.2 nM | 0.00434 s⁻¹ | 98100 M⁻¹ s⁻¹ | B4 |
| 64.5 nM | 0.00493 s⁻¹ | 76500 M⁻¹ s⁻¹ | B5 |
| 15.7 nM | 0.00331 s⁻¹ | 211000 M⁻¹ s⁻¹ | B6 |
| 16.7 nM | 0.00332 s⁻¹ | 199000 M⁻¹ s⁻¹ | B7 |

Biological target: T4, human IL-21R expressed on cells
Experiment: cell-based ELISA on CHO cells transiently expressing human IL-21R; HRP anti-human IgG, A450

| EC50 (read off the curve) | Binder |
| --- | --- |
| ~1 nM | B8 |
| ~0.6 nM | B1 |
| ~0.4 nM | B2 |
| ~0.9 nM | B3 |
| ~2 nM | B4 |
| ~0.5 nM | B5 |
| ~1 nM | B6 |

Biological target: T2, cynomolgus monkey IL-21R expressed on …
Experiment: cell-based ELISA on CHO cells transiently expressing cynomolgus monkey IL-21R; HRP anti-human IgG, A450

| EC50 (read off the curve) | Binder |
| --- | --- |
| ~0.7 nM | B8 |
| ~0.4 nM | B1 |
| ~0.5 nM | B2 |
| ~0.7 nM | B3 |
| ~0.7 nM | B4 |
| ~1 nM | B5 |
| ~0.6 nM | B6 |
| ~0.5 nM | B7 |
